We go through one molecule from PMC2899456 (International Journal of Biological Sciences, 2010).

What all share (assay): co-IP
Assay [1] has as its target E2F-1/S403A (UniProt Q01094 1-437, S403A).
In assay [2] the target is E2F-1/S332-7A (UniProt Q01094 1-437, S332-7A | S332-7A).
Assay [3] has as its target E2F-1/S375A (UniProt Q01094 1-437, S375A).
Assay [4] concerns the target E2F-1/Y411A (UniProt Q01094 1-437, Y411A).

B1: pRB (natural protein, mouse (endogenous in ψ-CRE), UniProt P13405 1-921, looked up)
chain: MPPKAPRRAAAAEPPPPPPPPPREDDPAQDSGPEELPLARLEFEEIEEPEFIALCQKLKVPDHVRERAWLTWEKVSSVDGILEGYIQKKKELWGICIFIAAVDLDEMPFTFTELQKSIETSVYKFFDLLKEIDTSTKVDNAMSRLLKKYNVLCALYSKLERTCELIYLTQPSSALSTEINSMLVLKISWITFLLAKGEVLQMEDDLVISFQLMLCVVDYFIKFSPPALLREPYKTAAIPINGSPRTPRRGQNRSARIAKQLENDTRIIEVLCKEHECNIDEVKNVYFKNFIPFINSLGIVSSNGLPEVESLSKRYEEVYLKNKDLDARLFLDHDKTLQTDPIDSFETERTPRKNNPDEEANVVTPHTPVRTVMNTIQQLMVILNSASDQPSENLISYFNNCTVNPKENILKRVKDVGHIFKEKFANAVGQGCVDIGVQRYKLGVRLYYRVMESMLKSEEERLSIQNFSKLLNDNIFHMSLLACALEVVMATYSRSTLQHLDSGTDLSFPWILNVLNLKAFDFYKVIESFIKVEANLTREMIKHLERCEHRIMESLAWLSDSPLFDLIKQSKDGEGPDNLEPACPLSLPLQGNHTAADMYLSPLRSPKKRTSTTRVNSAANTETQAASAFHTQKPLKSTSLALFYKKVYRLAYLRLNTLCARLLSDHPELEHIIWTLFQHTLQNEYELMRDRHLDQIMMCSMYGICKVKNIDLKFKIIVTAYKDLPHAAQETFKRVLIREEEFDSIIVFYNSVFMQRLKTNILQYASTRPPTLSPIPHIPRSPYKFSSSPLRIPGGNIYISPLKSPYKISEGLPTPTKMTPRSRILVSIGESFGTSEKFQKINQMVCNSDRVLKRSAEGGNPPKPLKKLRFDIEGADEADGSKHLPAESKFQQKLAEMTSTRTRMQKQRMNESKDVSNKEEK
Consider B1, for which the “fold change of the pRB/E2F-1 co-IP ratio against E2F-1/wt” value in assay [1] was ~3 fold (increase); in assay [2], ~3 fold (increase); in assay [3] it was ~2.5 fold (increase); in assay [4] it was ~4 fold (decrease).
